30 sequences from the nanobody polyreactivity screen of Harvey et al. (2022) can be followed below.

The data set can be described thus: yeast display, Sf9 membrane polyspecificity reagent, FACS + sequencing; frameworks hold sequencing errors. An outline of the steps: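 Sorting gates, low and high (top ~1%), were placed on anti-HA fluorescence to track expression and on streptavidin fluorescence to track reagent binding. A clone's polyreactivity label is taken from the gate it came out of. The reagent was 10% biotinylated, detergent-solubilized Sf9 membrane, applied for 1 hour at 4 °C to galactose-induced yeast display cells.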
Turning to “QVQLVESGGGLVQAGGSLRLSCAASGPTFDYNAMGCYRPAPGKERELVAAIRFGGGSTYYADSVKGRFTISRDNAKNTVYFQINSLKPEDTAVYYCNASPLWIGWVIVPVGSSHYDYWGQGTQVTVSS”, the “polyreactivity (PSR sort gate)” value is recorded as “low polyreactivity”.

In the case of “QVQLVESGGGLVQAGGSLRLSCAASGFIFKFNAMGWYRQAPGKERELVAAINYSAGSTYYADSVKGRFTISRDNAKNTVYLKMNSLKPEDTAVYYCNALYTYGWYSDDYWGQGTQVTVSS”, the “polyreactivity (PSR sort gate)” value is reported as “high polyreactivity”. The result for “QVQLVESGGGLVQAGGSLRLSCAASGLIFYSYAMGWYRQAPGKERELVAAITGGGSTNYADSVKGRFTISRDNAKNTVYLPMHSLKPEDTAVYYCAAAFTLRKYDYWGQGTQVTVSS” reads “low polyreactivity”; that for “QVQLVESGGGLVQAGGSLRLSCAASGSILPLYAMGWYRQAPGKERELVATISNAGSTTYADSVKGRFTISRDNAKNTVYLQMNSLKPEDTAVYYCNAESEWGWVYVGYDYWGQGTQVTVSS”, “low polyreactivity”; that for “QVQLEESGGGLVQPGGSLRLSCAASGTTIGHNAMGLYREAPGKERELVAAISNSGTRTYYADSVKGRFTISRDNAKNTVYLQMNILKPEDTAVYDCAARYYHIYTKYLQGSDYWGQGTQVTVSS”, “high polyreactivity”. With “QVQLVESGGGLVQAGGSLRLSCAASGRIFDFYGMGWYTQAPGKERELVAAISRRSGSTYYADSVKGRFTISRDNAKNTDYLQMNSLKPEDTAVYYCAAEPSSYRYDYWGQGTQGTVSS”, the “polyreactivity (PSR sort gate)” value is on record as “high polyreactivity”. In the case of “QVQLVESGGGLVQAGGSLRLSCAASGSTFQSNAMGWYRQAPGKERELVATISWSGGITYADSVKGRFTISRDNAKNTVYLQMNSLKPEDNAVHYFTDPDFDYWGQGTQVTLSS” it was “low polyreactivity”; in that of “QVQLVESGGGLVQAGCSLRLSCAASGSIFPCNAMGWYRQAPGKERELVAAISRGCSTNYADSVKGRFTISRDNAKNTDYLQMNSLKPEDTSVFDCAVYYYSYHGGRGYDYWGQGTQVTVSS”, “high polyreactivity”; in that of “QVQLVESGGGLVQAGGSLRLSCAASGSIFTQNAMGWYRQAPGKERALVAAMSSGGSTNDADSVKGRFTISRDNAKNTVYLQMNSLTPEDTAVDYCAKSIDGWYWRRRRYDYWGQGTQVTVSS”, “low polyreactivity”. “QVQLVESGGGLVQAGGSLRLSCAASGSTIRYYAMGWYRQAPGKEREFVAAITRSGGRTYYADSVKGRFTISRDNAKNTVYLQMNSLKPEDTADYYCAKVLYSPIGKYDYWGQGTQVTVSS”: the “polyreactivity (PSR sort gate)” value was “high polyreactivity”. The result for “QVQLVESGGGLVQAGGSLRLSCAASGRNFTDNDMGWYIQAPGKEMDLVAGINWSSGSTYYADSVKGRFTISRDNAKNTVYLQMNSLKTEDTAVYYCNALGYWRSTVHFVVGEVDYWGQGTQVTLSS” reads “low polyreactivity”.

Take “QVQLVESGGGLVQAGGSLRLSCAASGSTFKTYTMGWYRQAPGKERELVAGITSGGSTSYADSVKGRFTISRDNAKNTVYLQMNSLKPEDTAVYYCNADAYLVIYFYTVRDYGYDYWGQGTQVTVSS”: the “polyreactivity (PSR sort gate)” value was “low polyreactivity”. In the case of “QVQLVESGGGLVQAGGSLRLSCAASGFTFVYYAMGWYRQAPGKERELVATISGNGGRTYYADSVKGRFTISRDNAKNTVYLQMNSLIPDDTAVYYCATDVGFGRKQRPHRPGYGYWGQGTLVTVSS” it was “low polyreactivity”; in that of “QVQLVESGGGLVQAGGSLRLSCAASGSIFDQNAMGWYRQAPGKERELVAAITFSGVDTYYADSAKGRFTISRDNAKNTVYLQMNSLKPEDTAVYYCNADRGYNLVRRSQAVVEMDYWGQGTQVTVSS”, “low polyreactivity”; in that of “QVQLVESGGGLVQAGGSLRLSCAASGSIFRFYAMGWYRQAPGKERELVAGITWSGASTYYADSVKGRFTISRDNAKNTVYFQMNSLKPEDSAVYYCAAKSLIVRYDSWGQGTQVSVSS”, “high polyreactivity”. Regarding “QVQLVESGGGLVQAGGSLRLSCAASGRTFGYNAMGWNRQAPGKERELVAAINWSGASTYYADSVKGRFTISRDNAKNTVYFQMNSLKPADTAVYYCAADYSYIYGFDYWGQGTQVTVSS”, the “polyreactivity (PSR sort gate)” value is “low polyreactivity”. The result for “QVQLVESGGGLVQAGGSLRLSCAASGGTSQRYVMGWYRQAPGKERELVAAITSTGSTYYADSVKWRFTISRDNAKNTVYLQMNSLKPEDTAVYYCATGRLRIYKSYYWGQGTQVTVSS” reads “high polyreactivity”. For “QVQLVETGGGLVQAGGSLSLSCAASGRTSKINAMGWYRQAPGKERELVASISRTGGTTYYADSVKGRFTISRDNAKNTVYLQMNSVKPEDTAVYYCAVSDFGLRDSLTIYDEYDYWGQGTQVTVSS”, the “polyreactivity (PSR sort gate)” value is “high polyreactivity”.

In the case of “QVQLVESGGGIVQAGGSLRLSSAASGRTFYVYTMGWYRQAPGKERELVAAITSGGSTNYADSVKGRFKISRDNAKNTVYLQMNSLKPEDTAVYYCAARFSTVFKRYYYWGQGTQLTVSS”, the “polyreactivity (PSR sort gate)” value is listed as “high polyreactivity”. “QVQLVESGGGLVQAGGSLRLRCAASGFTIGYNVMGLYRQAPGKERELVATISWNGARTYYADSVKGRFTISRDNAKNTVYLQMNSLKPEDTAVYYCAARRYYRGEYDYWGQGTQVTVSS”: the “polyreactivity (PSR sort gate)” value is on record as “low polyreactivity”. Consider “QVQLVESGGGLVQAGGSLRLSCAASGRIFVKNAMGWYRQAPGKERELVATISSGGNTNYADSVKGRFTISRDNAKNTVYLQLNSLKPEDTAVYYCAAVWDLGDYELPYDYWGQGTQVTVSS”, for which the “polyreactivity (PSR sort gate)” value is “low polyreactivity”. In the case of “QVQLVESGGGLVQAGGSLRLSCAASGRTFAYYAMGWYRQAPGKERELVAAIDSSGGSTYYADSVKGRFTISRDNAKNTVYLQMNSLKPEDTAVYYCAASYPYDRYDQGGYGYWGQGTQVTVSS” it was “low polyreactivity”. The result for “QVQLVESGGGLVQAGGSLRLTSDASGFTFRSNAMGWYRQAPGKERELVAAITSRGGSTYYADSVKGRFTISRDYAKNTVYLQMNSLKPEDTAVYYCAADGRSRKFDYWGQGTQVTVSS” reads “high polyreactivity”; that for “QVQHVESGGGLVQAGGSLRLSCAASGSTFYYYAMGWYRQARGKERELVATISRSTARTFYADSVKGRFTISRDNAKITVYLQMNSLKPEDTAVYYCAREYYYRRGFFLRGYWGQGTQVTVSS”, “high polyreactivity”; that for “QFHLVESGGGLVQAGGSLRLSCAASGRIFSEYAMGWYRQAHGKEMELVASISTSGGSTYYADSVKGRFTISRDNAKNTVYLQKYSLKPEDTEVYYCNVAYYRYPSYTYGYDHWGQGTQVTVSS”, “high polyreactivity”. The result for “QVQLVESGVGLVQAGGSVRLSCAASGRTFYRYAMGWYRQAPGKERELVAAISSGGSTYYADSVKGRFTISRDNAKNTVYLQMNSLKPEDTAVYYCNADYGRRNHMDYWGQGTQVTVSS” reads “low polyreactivity”.

For “QVQLVQSGGGLFQAGGSLRLSCAASGRTFWSNAMGWYRQAPGKERELVADITFSGGRTYYADSVKGRFTISRDNAKTSVYLQMNRLKPEDTAVYYCSSSATPSGVGMDYWGQGTQVTVSS”, the “polyreactivity (PSR sort gate)” value is on record as “low polyreactivity”.

In the case of “QVQLVESGGGLVQAGGSLRLSCAASGSILSYYAMGWYRQAPGKERELVAAISKSGGRTYYADSVKGRFTISRDNAKNTVYLQMNSLKPEETAVYYCAAEIVVFYSEGQRNTFYYWGQGTQVTVSS”, the “polyreactivity (PSR sort gate)” value was “high polyreactivity”. For the sequence “QVQLVESGGGLVQAGGILRLSCAASGSTFYQYAMGWYRQAPGKERELVAAITRGGRTYYADSVKGRFTISRDNAKNTVYLQMNSLKPEDTAVYYCAAGYRTAYRGSSYYYWGQGTQVTVSS”, the “polyreactivity (PSR sort gate)” value is given as “high polyreactivity”. For “QVQLVESGGGLVQAGGSLRLSCAASGRNLQQYVMGWYRQAPGKERELVAAITRGGRTNYADSVKGRFTISRDYAKNTVYLLMNSLKQEDTAVYYCKTRYPSRVVAWLDYWGQGTQVNVSS”, the “polyreactivity (PSR sort gate)” value is “low polyreactivity”.
